Test results reported in publication PMC5458272 (2017).

Target: GST
Test: SPR

Kd: > 5 µM
B1: Recombinant His-tagged Aurora-A (enzyme)
chain: MDRSKENCISGPVKATAPVGGPKRVLVTQQFPCQNPLPVNSGQAQRVLCPSNSSQRIPLQAQKLVSSHKPVQNQKQKQLQATSVPHPVSRPLNNTQKSKQPLPSAPENNPEEELASKQKNEESKKRQWALEDFEIGRPLGKGKFGNVYLAREKQSKFILALKVLFKAQLEKAGVEHQLRREVEIQSHLRHPNILRLYGYFHDATRVYLILEYAPLGTVYRELQKLSKFDEQRTATYITELANALSYCHSKRVIHRDIKPENLLLGSAGELKIADFGWSVHAPSSRRTTLCGTLDYLPPEMIEGRMHDEKVDLWSLGVLCYEFLVGKPPFEANTYQETYKRISRVEFTFPDFVTEGARDLISRLLKHNPSQRPMLREVLEHPWITANSSKPSNCQNKESASKQS
